Measured values reported in the RNAGym collection of RNA variant scans (doi:10.1073/pnas.2313332121).

B1: TPR t1 (parent)
chain: GACCAAUCUGCCCUCAGAGCUCGAGAACAUCUUCGGAUGCAGAGGAGGCAGGCUUCGGUGGCGCGAUAGCGCCAACGUCCUCAACCUCCAAUGCAUCCCACCACAUGAUGAUGCCUGAAGAGCCUUGGUUUUUUG

Variants of: B1
Experiment: polymerase ribozyme fitness, log enrichment relative to wild type (log ratio); higher = more active; in vitro selection for triplet polymerase activity
Outline: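 Mutant libraries of both subunits of a heterodimeric triplet polymerase ribozyme were PCR-built, transcribed, and selected once in triplicate, with frozen incubation at −7 °C and capture of gel-excised extended constructs on streptavidin beads before RT-PCR. Illumina sequencing of input and output libraries was filtered to genotypes with ≥10 input reads and ≥1 read per output. Fitness is the logarithm of genotype enrichment over wild-type enrichment, using inverse-variance-weighted replicate averages. The logarithm is base 2.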

Variant | polymerase ribozyme fitness (log ratio)
A5G C49G | -1.85
A5U C12A U21G C49A C72G | -2.35
A5U A103C G110A G113C | -5.8
A5U G122A | -0.551
A5C U129A | -0.548
A5U G10U C49G C62G | -4.17
A5G A50U G63A G117A | -6.03
A5G C8G G113U | -1.74
A5U A6C G57U C123U | 0.75
A5U A16C G57C G69A G93A | -6.66
A5U C22U A50U U54G | -6.42
A5G C85G | -2.35
A5U C56U | -0.648
A5U C56G | -1.04
A6C A50C C70A G127U | -4.88
A5G U81A | -0.807
A5G C8G G52C C79U | 0.0143
A5G C13A C53U U59G | -1.69
A5C U9G C80U A90U U92A | -2.94
A5G U9G U21A C56U A83U | 0.0637
A5G G45U G60A C101G U133G | -3.66
A5U A46U C73A A90U C123A | -1.41
A5U A27G G44U A118U | -4.64
A6C A27C G110C U130C | -6.2

Variant | polymerase ribozyme fitness (log ratio)
A5U A41C G77A G110A A121C U130A | -5.22
A5C U109A | -4.8
A5U C8U C11U G61A G113A C124G | -0.703
A5G C82G | -0.685
A5U A6C A26G G44A U54C A84C C94U | -4.49
A5U U14G A83C A111C | -2.47
A5C U7C G57U C99U U112A | -3.19
A5U C22A G60U | -6.59
A5U C12G C89U A103C G117U | -6.59
A5U A6C C49G U54A | -0.438
A5G C13G G39A G51A U112C | -2.65
A6C C8A U32C A84U A90G G110C C114U | -5.68
A6C A41U U106A | -1.37
A5U A43G C124A | -0.815
A5G A74G A118C | -3.85
A5G G17U A18G A100C A121G C124G | -3.51
A5U G19A C72G U112G | -4.06
A5U U92G C104U | -2.44
A6C C12U G48C U78G G110C | -4.8
A5G A16U G61U A66C U129A | -3.64
A6C A118U | 0.712
A5C U9C C13U | -0.074
A6C C12G G57U | -0.469
A5U C11G A91G | -0.601

Variant | polymerase ribozyme fitness (log ratio)
A6C C8A C13G A43U G69C C88A | -2.92
A5U G71A | -1.5
A5C U32C C53U G57A C85A | -3.78
A5U C53U G63A C79G G127C | -2.9
A6C C15A U33G C124G | -5.85
A5C U7C G69U C85A U92C | -3.85
A5U G42A | -1.63
A5U C62U | -0.31
A5G G48C | -1.69
A6C A50U G58A G60C C70U | -3.42
A6C A29U A91C | -4.88
A5G G42U C80A | -5.11
A5U U81G G93A U106A C123U | -3.99
A6C A37C | -0.884
A5G A50C | -0.262
A5C G117U | -3.58
A5U C123A | 1.2
A5U C104A | -2
A5U C70G U106A C114U | -5.21
A5U A46U U59C A90U C123A | -2.16
A5U A6C C11U | -0.244
A5U U87G U130C | 0.627
A5G A24G A29C G36C G61A C70U G113A | -5.67
A6C A29U G45A G113U | -4.91

Variant | polymerase ribozyme fitness (log ratio)
A5U A18C C124U | -0.683
A5U A74C G122A | -1.42
A5G C56A G69A C86A | -3.95
A5C U9C G61C | -1.78
A5G G45U A46C G61A U78G C115U | -2.84
A6C A105C U130C | -1.78
A6C C11A A18C C73U | -4.87
A6C C8A A121C | 1.45
A5U C15U G48A C70A | -3.43
A5U G19A G52A G57A A95G | -4.08
A5U C15A C62A G122A | -4.9
A5G G71U A111C G127A | -1.59
A5C U54C C82G C104A U131C | -1.29
A5U U7C C8U C11U C86A | -1.5
A5G G69U | 0.484
A5G G69C | -1.4
A5G G69A | -2.1
A5C U96A A121C | 0.399
A5U C62U C72U | -0.208
A5G C20U C53A G58A C99U | -4.64
A5U C12U C49U C94U | -2.22
A6C C13U U33A G45U G51C A68U A121U G122U | -6.98
A5G C13U A46U C56A | -0.813
A5U A6C C8G G47A G113C | -2.19

Variant | polymerase ribozyme fitness (log ratio)
A5U G52C C62A U112A | -0.939
A5U C11A G63U G93U | -3.79
A5U A37G | 0.0705
A5G C49A C115U U132A | -0.466
A5G A18G C79A U81C C89U G93U G120C C124U | -6.53
A5U C72U C114U | -2.7
A5G A18G G44C G48C U55C U59G G117U | -5.35
A5U U126A | -0.78
A5U G39A C73A U78C | -0.828
A5G C72U | -0.625
A5G C72G | -0.844
A5G A84U U112G | -0.141
A5U A50U G61U C88G | -1
A5G C49U C70U C72U A121U U133G | 0.312
A5U G17A G69A C79U G113U | -6.54
A5U C40U G42C | -2.03
A5U G110U U130A | -2.41
A6C C12A A84G U92C U106G G113C | -5.99
A6C C28G U30A G51U G69A C70A C115A G128C | -6.73
A5U U7A A91G C114A | -1.75
A5G G61A C94A | -0.707
A5G G57U U78G U106A G110A | -1.97
A5U C73G C94G | -2.07
A5C U9A C13U A74C G110C C123A | -5.77

Variant | polymerase ribozyme fitness (log ratio)
A6C A29U G52U C53U G120A C123U | -2.96
A5U G71U C72U C101G G117U | -5.12
A5U C64U G117A | -2.55
A5G C8U A121C | 1.12
A5G C53A U59A G77U C94U | -0.908
A5G C72A C73U U81G U106G A118U A121C | -5.16
A5U G60U U116C | -1.69
A5G U32C C70U G93A | -2.13
A5U C28U A37U C104U C123G | -3.39
A5U U14C A18U G45U G71U A121C | -5.73
A5G G10A C15A G23C U32G G61C A90C | -6.73
A5G G61A U78A A84C U129A | -1.36
A5U U9A U32C A37U C49U G69U G93A | -1.24
A6C A95G C102U C124G | -0.561
A5G U38G C114A | -2.6
A6C C8A C49A C56U | -0.31
A5C U9A C40U G63U G135U | -2.96
A5G A91U | -1.78
A5U C28U G69A C124U U133G | -4.96
A5G U78A A95C U106G | -3.66
A5U G61C | -1.74
A5U U21G U55C G61U C79U C114A U126A | -1.56
A5U A43G G48A C62U A103U G110U | -6.17
A5U A119G | 0.901

Variant | polymerase ribozyme fitness (log ratio)
A5U C49G C53A G71U | -0.914
A5U U9A A18U | -2.06
A5C G120A | 0.639
A5C G120C | 0.663
A5U C12G C49G U81A G127A | -4.64
A5G C82G C97A C124A U125G | -4.89
A5G U106A | 0.687
A5U C15G A43G U54G C114U G122U | -6.04
A5U A37C G113U | -3.79
A5U A6G A46C C115G | -2.4
A5G C11A C70A G71A A121C G122U G127A | -3.67
A5G U59G G63U C73G A111C | -6
A5U C20A G69U C98G C123G | -2.75
A5G G36U G63C A111C A119C | -4.21
A5G G17A | -2.47
A6C C13U A37C G69U C98G | -4.9
A5G C13G A18C G35U A75G C79U A119G C123G U130C | -7.55
A5U C62G A100U G120U | -3.08
A5U C62G A90G C123U | -0.143
A5U A46U G71C U81A | -4.5
A5G C12G G71C A121G | 0.0981
A5U C8U C40U C123A | 1.55
A5G C56U | -0.367
